The record followed here is patent US10260068B2, “Prophylactic agent and therapeutic agent for fibrodysplasia ossificans progressiva” (Sumitomo Dainippon Pharma Co., Ltd., priority 2014, dated 2019).

In test [1] the target is T1, wild type ACVR1 (Homo sapiens, UniProt Q04771).
T1 construct: an iPS cell line with the ACVR1 gene mutation repaired to the normal type (wild type) by gene repair by a BAC knockin vector; endogenous in cells; host or cells: mesenchymal stem cell-like cells differentiated from the gene-corrected iPS cell clone
T1 sequence (Q04771 21-509): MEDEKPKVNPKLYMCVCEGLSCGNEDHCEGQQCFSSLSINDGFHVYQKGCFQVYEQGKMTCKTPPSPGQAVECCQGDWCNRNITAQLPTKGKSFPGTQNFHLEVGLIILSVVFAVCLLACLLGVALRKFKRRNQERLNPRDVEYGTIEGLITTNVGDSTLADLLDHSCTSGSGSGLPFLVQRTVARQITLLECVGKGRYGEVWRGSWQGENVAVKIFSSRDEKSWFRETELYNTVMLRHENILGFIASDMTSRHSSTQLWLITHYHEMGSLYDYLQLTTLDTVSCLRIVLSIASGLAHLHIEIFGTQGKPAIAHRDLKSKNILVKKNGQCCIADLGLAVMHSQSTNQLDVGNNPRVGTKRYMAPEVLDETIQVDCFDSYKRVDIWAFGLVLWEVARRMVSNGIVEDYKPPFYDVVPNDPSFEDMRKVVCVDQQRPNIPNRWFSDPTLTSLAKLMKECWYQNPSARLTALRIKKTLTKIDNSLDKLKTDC
The test can be described thus: Luciferase reporter (BMP responsive sequence) transcription activity in gene-corrected clone derived cells. Type of test: cell-based. The conditions noted are these: ligand 1, 10, 100 ng/mL, 16 hours. The source says:
Following the method of Yamanaka et al. (Cell, 2007, 131 (5), […]), FOP patient-derived iPS cells (hereunder also referred to as “patient-derived iPS cell line”) were established. The patient cells were confirmed to be cells having a typical FOP-associated mutation in the ACVR1 gene. The mutation is a substitution of the 206th arginine residue of the amino acid sequence of ACVR1 (the amino acid sequence listed as SEQ ID NO: 10) with a histidine residue. Next, for use as a control, an iPS cell line with the ACVR1 gene mutation repaired to the normal type (wild type) by gene repair by a BAC knockin vector (hereunder also referred to as “gene-corrected iPS cell clone” or “gene-rescued iPS cell clone”) was established.
The patient-derived iPS cell line and gene-corrected iPS cell line were cultured on the matrix of a Matrigel coated plate (trade name: Growth Factor Reduced (GFR)BD Matrigel® by Becton & Dickinson), using mTeSR1 (Stem Cell Technologies) for 2 days under feeder-free conditions. Next, using serum-free medium [F12 Nutrient Mixture (product of Gibco)/Iscove's Modified Dulbecco's Medium (IMDM) (product of Sigma-Aldrich Japan, KK.)/0.5% bovine serum albumin (BSA) (product of Sigma-Aldrich Japan, KK.)/1% Chemically Defined Lipid (CD-Lipid) (product of Gibco, trade name: Chemically Defined Lipid Concentrate)/15 μg/mL apotransferrin (product of Sigma-Aldrich Japan, KK., trade name: apo-Transferrin human)/7 μg/mL insulin (product of Wako Pure Chemical Industries, Ltd., trade name: Insulin, Human, recombinant)/0.45 mM 1-Thioglycerol (product of Sigma-Aldrich Japan, KK.)] with addition of 10 μM SB-431542 (product of Selleck Chemicals) and 1 μM CHIR99021 (product of Wako Pure Chemical Industries, Ltd.), the patient-derived iPS cell line and gene-corrected iPS cell line were further cultured for 1 week under feeder-free conditions for differentiation to neural crest cells. […]
After mixing Firefly luciferase reporter plasmid having the BMP responsive sequence in the promoter region (J. Biol. Chem., 2002, 277(7), 4883-4891) and a plasmid having a nucleic acid sequence coding for Renilla luciferase downstream from CMV promoter, as an internal standard (product of Promega Corp., trade name: phRL-CMV Vector), FuGene® HD (Promega Corp.) was used for transfection into the mesenchymal stem cell-like cells. […] Next, the luciferase activity was measured according to the protocol provided with a Dual-Glo Luciferase Assay System (product of Promega Corp.). The luminescence was detected using an EnVision Multilabel Counter (product of Perkin-Elmer). […]
For orientation: In a reporter assay the amount or activity of a reporter protein is the signal.

Test [2] concerns SMAD1/5/8. The test can be described thus: SMAD1/5/8 phosphorylation by Western blotting in FOP patient derived cells. The conditions noted are these: for amount of total SMAD1/5/8: Western blotting, 60 minutes treatment, FOP patient derived and gene-corrected clone derived cells. Type of test: cell-based, human. How it is done:
Mesenchymal stem cell-like cells from a patient iPS cell line and a gene-corrected iPS cell clone were each prepared by the same method as Example 1. Culturing was conducted for 60 minutes with addition of 10 ng/mL and 100 ng/mL of human activin A or 100 ng/mL of human BMP-7 to the mesenchymal stem cell-like cells. The cells were then solubilized with 300 μL of a dissolving solution (70 mM Tris-HCl buffer solution, pH 6.8, 11.2% glycerol, 3% sodium dodecyl sulfate), and a cell extract was prepared. The amount of phosphorylated SMAD1/5/8 and the amount of total SMAD1/5/8 in the obtained cell extract were quantified by Western blotting. As the primary antibody for phosphorylated SMAD1/5/8 there was used rabbit anti-phosphorylated SMAD1/5/8 antibody [product of Cell Signaling Tech., trade name: Phospho-Smad1 (Ser463/465)/Smad5 (Ser463/465)/Smad8 (Ser426/428) Antibody (Rabbit)], and as the primary antibody for total SMAD1/5/8 there was used rabbit anti-total SMAD1/5/8 antibody [product of Santa Cruz Biotechnology, trade name: Smad1/5/8 Antibody (N-18)-R (Rabbit)]. The secondary antibody used was horseradish peroxidase conjugated anti-rabbit antibody (product of Cell Signaling Tech., trade name: Anti-rabbit IgG, HRP-linked Antibody). The substrate used for chemiluminescence was ECL Prime (product of GE Healthcare), and ChemiDocXRSPlus (product of Bio-Rad Laboratories, Inc.) was used for the detection.
A general note: A western blot detects proteins with antibodies after separation by electrophoresis.

Turning to “human activin A: Recombinant Human/Mouse/Rat Activin A (R&D Systems); homodimer of inhibin βA chains”, the “transcription activity via ACVR1 (firefly/Renilla luciferase activity, BMP responsive sequence)” value in test [1] was “not seen”. In addition, the “phosphorylation of SMAD1/5/8” value in test [2] (FOP patient derived cells, 10 and 100 ng/mL activin A, 60 minutes) is given as “induced”. Moreover, in test [2], the “amount of total SMAD1/5/8” value is “No significant change”.

B1: BMP-7: Recombinant Human BMP-7 (R&D Systems); cytokine of the BMP family (protein)
chain: STGSKQRSQNRSKTPKNQEALRMANVAENSSSDQRQACKKHELYVSFRDLGWQDWIIAPEGYAAYYCEGECAFPLNSYMNATNHAIVQTLVHFINPETVPKPCCAPTQLNAISVLYFDDSSNVILKKYRNMVVRACGCH
As for B1, the “transcription activity via ACVR1 (firefly/Renilla luciferase activity, BMP responsive sequence)” value in test [1] is reported as “increased in a concentration-dependent manner”. Besides, the “amount of total SMAD1/5/8” value in test [2] is “No significant change”.
